Kd data for one molecule are collected here from patent publication US20050260212A1 (PDL BIOPHARMA, published 2005).

This assay addresses T1, human LFL2-Fc fusion protein (human, UniProt P01857-1 99-330 = IgG part, limits assumed).
T1 construct: domain: constant region of the human gamma 1 immunoglobulin heavy chain; In-frame fusion of the LFL2 extracellular domain with the human gamma 1 constant region; GenBank NP-570843.1 is printed for LFL2/LRRC15
Description: SPR (BIAcore 3000), mAb immobilised on CM5, LFL2-Fc analyte, bivalent analyte model. In general terms: SPR reads the build-up and loss of mass on a sensor chip optically.
Description: Kinetics measurements between human LFL2-Fc fusion protein and anti-LFL2 mAbs were performed using BIAcore 3000™ (BIAcore™, Sweden). Anti-LFL2 mAbs were immobilized with 100 RUs on Research-grade CM5 sensor chip by the BIAcore amine coupling reagents (N-ethyl-N′-dimethylaminopropylcarbodiimide, EDC; N-hydroxysuccinimide, NHS; and ethanolamine HCl, pH8.5). Assays were run at a flow rate of 30 ul/min at room temperature. Three-minute association phase of each LFL2-Fc was followed by ten-minute injection of running buffer (10 mM Hepes, 300 mM sodium chloride, 3 mM EDTA, 0.05% P-20, pH7.4) to monitor dissociation. The mAb surface was regenerated with 25 mM NaOH. […] Double referencing was applied in each analysis to eliminate background responses from reference surface and buffer only control. The affinity (KD) of binding was obtained by simultaneously fitting the association and dissociation phases of the sensorgram from the analyte concentration series using the bivalent analyte model from BIAevaluate software.

T1 sequence (P01857 other isoform, or with tags, fused parts or gaps limits assumed): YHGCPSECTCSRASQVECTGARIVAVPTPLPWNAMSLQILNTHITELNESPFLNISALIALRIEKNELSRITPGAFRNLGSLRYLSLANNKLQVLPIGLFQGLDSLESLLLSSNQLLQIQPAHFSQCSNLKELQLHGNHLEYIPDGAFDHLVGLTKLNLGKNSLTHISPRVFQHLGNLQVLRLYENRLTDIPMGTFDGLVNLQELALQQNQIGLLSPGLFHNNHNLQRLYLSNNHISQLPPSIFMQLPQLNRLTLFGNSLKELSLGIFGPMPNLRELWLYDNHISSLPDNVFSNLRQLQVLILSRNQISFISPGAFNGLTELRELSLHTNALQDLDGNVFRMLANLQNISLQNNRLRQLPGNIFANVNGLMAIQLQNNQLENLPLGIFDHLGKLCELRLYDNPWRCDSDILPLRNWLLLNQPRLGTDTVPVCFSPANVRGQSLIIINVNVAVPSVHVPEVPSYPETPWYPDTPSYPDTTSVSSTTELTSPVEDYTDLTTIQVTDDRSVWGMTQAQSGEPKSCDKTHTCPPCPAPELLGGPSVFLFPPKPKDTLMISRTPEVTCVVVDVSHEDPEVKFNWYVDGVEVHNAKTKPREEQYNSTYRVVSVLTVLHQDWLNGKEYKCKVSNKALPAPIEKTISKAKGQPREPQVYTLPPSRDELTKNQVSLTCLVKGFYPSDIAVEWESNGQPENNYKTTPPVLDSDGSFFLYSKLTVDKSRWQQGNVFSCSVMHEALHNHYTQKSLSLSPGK

B1: anti-LFL2 mAb M25 (antibody, V domains shown)
VH: QVQLQQSGAELMKPGASVKISCKATGYKFSSYWIEWVKQRPGHGLEWIGEILPGSDTTNYNEKFKDKATFTSDTSSNTAYMQLSSLTSEDSAVYYCARDRGNYRAWFGYWGQGTLVTVS
VL: DIQMTQTSSLSASLGDRVTISCRASQDISNYLNWYQQKPDGTVKFLIYYTSRLHSGVPSRFSGSGSGTDYSLTISYLEPEDIATYFCQQGEALPWTFGGGTKLEIKR
Molecule B1 returned a Kd of 1.2 nM.
